Test results as given in patent US8598081B2, “Specific delivery of agrochemicals” (priority 2010, dated 2013).

How the values were obtained:
[1] = test system: intact living potato pot plants; assay: VHH binding to intact living plants; set-up: species or system potato (variety Desiree); conditions: in PBS; 1 hour; FIG. 2: 5 μg/ml
Experimental: Binding of VHH to intact living plants was investigated on potato pot plants (variety Desiree). Compound leaves of intact living plants were submersed in solutions of hexahistidine-tagged VHH in PBS, or PBS alone for control conditions, leaving the compound leaves attached to the plants. VHH were allowed to bind for 1 hour. Next, the compound leaves still attached to the plants were washed five times in PBS in Erlenmeyer flasks. Different leaves and petiole sections were sampled. Bound VHH were detected by incubation with monoclonal mouse anti-histidine antibodies directly conjugated with Alexa-488 fluorescent dye (Abd Serotec) in PBS for 1 hour. Unbound anti-histidine antibodies were removed by washing five times with PBS. Whole leaves, leaf discs, or petiole sections were analyzed for bound VHH with microscopy.

[2] = test system: gum arabic or potato lectin; assay: Lambda cyhalothrin amount in wells with bound microcapsules, GC/MS-MS; assay type: binding; conditions: VHH coupled to lambda cyhalothrin microcapsules
Experimental: An ELISA-like assay setup was used to evaluate the interaction of VHH-coupled microcapsules to antigen-containing surfaces. ELISA plates (Maxisorp (Thermo Scientific Nunc) or high bind half area microplates (Greiner Bio-One)) were coated with gum arabic or potato lectin. Coatings were performed overnight with 100 μg/ml gum arabic or potato lectin in PBS. Control wells included blank wells or wells coated with unrelated antigens. Plates were washed three times with PBS with 0.05%-TWEEN®-20 and blocked with 5% skimmed milk in PBS for 1 to 2 hours. VHH-coupled lambda cyhalothrin-containing or Uvitex-containing microcapsules were diluted to appropriate densities in 1% skimmed milk in PBS with 0.05%-TWEEN®-20. Microcapsules were added to the antigen-coated or control wells and allowed to bind for 1 hour. Unbound microcapsules were removed by washing five times with PBS with 0.05%-TWEEN®-20. The bottoms of ELISA plate wells were analyzed for bound microcapsules on a macrozoom microscope system (Nikon). Microcapsules were counted using Volocity image analysis software (Perkin Elmer). A DAPI filter was used to visualize Uvitex microcapsules. […]
In another experiment, lambda cyhalothrin amounts were also determined analytically. […] The amount of lambda cyhalothrin was determined by GC/MS-MS analysis in comparison with calibration solutions. […]

[3] = test system: leaf surface of potato leaves; assay: VHH binding to non-fixed leaf discs, potato; set-up: species or system potato (variety Desiree); conditions: 5 μg/ml, detection with anti-histidine Alexa-488
Experimental: VHH binding to non-fixed leaf discs of potato (variety Desiree), black nightshade, grass, wheat or azalea was investigated. For comparison, binding of CBM3a to non-fixed leaf discs of potato (variety Desiree) was analyzed in parallel. Leaf discs were prepared by punching a fresh potato leaf with a 5 mm belt hole puncher tool. Leaf discs were put immediately in wells of a 96-well plate containing 200 μl per well 5% MPBS or PBS, and incubated for 30 minutes. Leaf discs were transferred to solutions containing 5 μg/ml VHH antibody fragment, respectively, 5 μg/ml CBM3a in 2% MPBS or PBS and incubated for 60-90 minutes. Unbound VHH or CBM3a proteins were removed by washing three times with 2% MPBS or PBS. Bound VHH or CBM3a proteins were detected with incubation with monoclonal mouse anti-histidine antibodies directly conjugated with Alexa-488 fluorescent dye (Abd Serotec) in 1% MPBS for 1 hour. Unbound antibodies were removed by washing three times with PBS. Leaf discs were put on glass slides, covered with cover slips, and analyzed by microscopy or on a macrozoom microscope system (Nikon) or a SP5 confocal microscope system (Leica).

[4] = test system: potato leaf discs; assay: VHH binding at different temperatures, leaf dip experiment; set-up: species or system potato (variety Desiree); conditions: temperature range from 4° C. to 55° C.; 5 μg/ml in PBS; 1 hour
Experimental: In order to test applicability of VHH as binders for greenhouse or field applications where binding supposedly may occur at different and sometimes even extreme temperatures, a leaf dip VHH binding experiment at different temperatures was used. Temperatures used were 4° C., room temperature, 37° C., 55° C., or 70° C. ø 8 mm potato leaf discs (variety Desiree) were cut using a puncher tool. The leaf discs were equilibrated to different temperatures by washing three times with PBS at different temperatures. Hexahistidine-tagged VHH were diluted to 5 μg/ml in PBS at different temperatures, added to the corresponding equilibrated leaf discs, and binding of VHH was allowed for 1 hour at different temperatures. After incubation with VHH, leaf discs were washed five times with PBS at room temperature. Bound VHH were detected by incubation with monoclonal mouse anti-histidine antibodies directly conjugated with Alexa-488 fluorescent dye (Abd Serotec) in PBS for 1 hour at room temperature. Unbound anti-histidine antibodies were removed by washing five times with PBS at room temperature. Leaf discs were analyzed for bound VHH with microscopy. […] Please note that leaf discs severely suffer when submerged in PBS at 70° C. for 1 hour but that binding of VHH was still detected.

[5] = test system: gum arabic; assay: VHH binding to gum arabic in ELISA; set-up: species or system acacia tree
Experimental: Titration of VHH antibody fragments was performed on ELISA plates (Maxisorp, Nunc) coated with 100 μl per well 100 μg/ml gum arabic in 50 mM carbonate pH 9.6. Plates were coated at 4° C. overnight and coating was continued at room temperature for 1 hour on the next day. Plates were washed three times with PBS/0.05%-TWEEN®-20 and blocked with 5% skimmed milk in PBS for 1 hour. Four-fold serial dilutions of purified VHH antibody fragments were prepared in 1% MPBS/0.05%-TWEEN®-20 in polypropylene 96-well plates. Antibody concentrations ranged from 3 μg/ml to 12 ng/ml. Antibody dilutions were transferred to the gum arabic-coated plates and VHH antibody fragments were allowed to bind for 1 hour at room temperature. Bound VHH were detected with sequential incubations with monoclonal mouse anti-histidine antibodies (Abd Serotec) and rabbit anti-mouse IgG whole molecule antibodies conjugated with alkaline phosphatase (RaM/AP) (Sigma) in 1% MPBS/0.05%-TWEEN®-20. Unbound antibodies were removed by washing three times with PBS/0.05%-TWEEN®-20 after each antibody incubation. The plates were washed an additional two times with PBS and 100 μl pNPP disodium hexahydrate substrate (Sigma) was added to each well. The absorbance at 405 nm was measured and plotted as function of antibody concentration (see Table 1).

B1: VHH 3E6: VHH binding gum arabic, potato lectin and leaf surface; SEQ ID NO:7 by order of the list (protein, listed as Lama glama)
VHH: QVQLQESGGGLVQPGGTLSLSCAASGFNVRWYGMGWFRQAPGKEREGVACISALQETTAYADSVKGRFTLSRDNPKNTLSLQMNNLQPEDTGVYYCATTDCDDSSRMTYTSYLGQGTQVTVSS
modifications: 3E6
[1]
  binding to intact living plant (leaves attached to potato pot plant submerged in VHH solution): binding leaf surface, stomata, glandular trichomes, and leaf hairs
[2]
  increase of amounts of lambda cyhalothrin in wells coated with antigen compared to blank microcapsules: 23 fold
  increase of amounts of lambda cyhalothrin over blank wells not coated with antigen: 27 fold
[3]
  binding to native potato leaf surface (fluorescence microscopy): binding leaf surface, stomata, glandular trichomes, and leaf hairs
[3]; listed as 3E6
  binding to native potato leaf surface (fluorescence microscopy): clearly binding to trichomes, stomata and cuticle
[4]
  binding to leaf discs at different temperatures: detectable binding
[5]; Table 2, gum arabic coating, VHH 3 μg/ml
  absorbance at 405 nm: 0.882
[5]; [VHH] 3 μg/ml (200 nM), gum arabic − (well without gum arabic)
  absorbance at 405 nm: 0.090
